# Assay results: patent US11369662B2 (The Medical College of Wisconsin, Inc., priority 2014, dated 2022)
# What was measured:
# [1] = biological target: T1, CXCR4 (Homo sapiens, UniProt P61073); assay: CXCR4 degradation assay in HeLa cells; format: cell-based; details: 80 ng/ml, 3 h, compared to vehicle
# T1 construct: purchased Millipore
# Experimental: (§1) CXCR4 degradation assay. HeLa cells grown on 6-cm dishes were washed once and incubated with DMEM containing 10% FBS and 50 μg/ml cyclohexamide for 15 min at 37° C. […] Cells were washed once and collected in 300 μl 2× sample buffer. Receptor levels were determined by SDS-PAGE followed by immunoblotting using an anti-CXCR4 antibody. Blots were stripped and reprobed for actin to assess loading. Receptor levels normalized to actin levels were determined by densitometric analysis.
# as §1, with “2×sample” for “2× sample”
# [2] = biological target: T1, CXCR4; assay: Confocal microscopy of CXCR4 Ser324/Ser325 phosphorylation in HeLa cells; format: cell-based; details: HeLa cells with HA-CXCR4-YFP, 80 ng/ml, 15 min
# Experimental: Connfocal microscopy. HeLa cells transiently transfected with HA-CXCR4-YFP were passaged onto poly-L-lysine coated coverslips and grown for 24 h. The next day, cells were washed once with warm DMEM containing 20 mM HEPES, pH 7.5, and incubated in the same medium for 3-4 h at 37° C. […] Cells were then fixed with PBS containing 3.7% paraformaldehyde, followed by permeabilization with 0.05% (w/v) saponin for 10 min, similar to a protocol we have described previously. Cells were then incubated with 1% goat serum in 0.05% saponin-PBS for 30 min at 37° C., followed by staining with […] monoclonal antibody that recognizes dually phosphorylated CXCR4 on serine residues 324 and 325 (clone 5E11) (1:50 dilution) for 1 h at 37° C. […] Samples were analyzed using an LSM 510 laser scanning confocal microscope (Carl Zeiss, Thornwood, N.Y.) equipped with a Plan-Apo 63×/1.4 oil lens objective. […] Acquired images were analyzed using ImageJ, version 1.41o software (National Institutes of Health, Bethesda, Md.) and Adobe Photoshop (CS4).
# Confocal microscopy. […] Samples were analyzed using an LSM 510 laser scanning confocal microscope (Carl Zeiss, Thornwood, N.Y.) equipped with a Plan-Apo 63×/1.4 oil lens objective. […] Acquired images were analyzed using ImageJ, version 1.410 software (National Institutes of Health, Bethesda, Md.) and Adobe Photoshop (CS4).
# [3] = tested on: KG1a cells; assay: Apoptosis assays in KG1a cells expressing CXCR4-YFP; format: cell-based, human; details: for cleavage of PARP: 100 ng/ml
# Experimental: Apoptosis assays. KG1a (human acute myelogenous leukemia) cells were assayed for CXCL12-dependent apoptosis as previously described. Briefly, CXCR4 expression on KG1a cells was achieved via transient transfection with a plasmid encoding a CXCR4-YFP fluorescent fusion protein. […] Apoptosis was assayed by staining cells with APC-conjugated annexin V to detect cell-surface phosphatidyl serine (BD Biosciences) or Alexaflour-647-conjugated antibody to detect cleaved PARP (BD Biosciences), and the percentage of YFP+ cells undergoing apoptosis was determined by flow cytometry.
# [4] = biological target: T1, CXCR4; assay: CXCR4 ubiquitination assay in HEK293 cells stably expressing HA-CXCR4; format: cell-based; details: HEK293 HA-CXCR4 with FLAG-ubiquitin, 80 ng/ml, 30 min
# Experimental: (§2) CXCR4 ubiquitination assays. HEK293 cells stably expressing HA-CXCR4 grown on 10-cm dishes were transfected with 3 μg FLAG-ubiquitin. The next day, cells were passaged onto 6-cm dishes and allowed to grow for an additional 24 h. […] Cells were then washed once on ice with cold PBS, and collected in 1 ml lysis buffer [50 mM Tris-Cl, pH 7.4, 150 mM NaCl, 5 mM EDTA, 0.5% (w/v) sodium deoxycholate, 1% (v/v) NP-40, 0.1% (w/v) SDS, 20 mM N-ethyCXCL121aleimide (NEM), and 10 μg/ml each of leupeptin, aprotinin, and pepstatin A]. Samples were transferred into microcentrifuge tubes and placed at 4° C. for 30 min, followed by sonification and centrifugation to pellet cellular debris. Clarified cell lysates were incubated with an anti-HA polyclonal and isotype control antibodies and the immunoprecipitates were analyzed by SDS-PAGE followed by immunoblotting using an anti-FLAG antibody conjugated to HRP.
# as §2, with “Tris-CI,” for “Tris-Cl,”
# T1 sequence (P61073 whole entry): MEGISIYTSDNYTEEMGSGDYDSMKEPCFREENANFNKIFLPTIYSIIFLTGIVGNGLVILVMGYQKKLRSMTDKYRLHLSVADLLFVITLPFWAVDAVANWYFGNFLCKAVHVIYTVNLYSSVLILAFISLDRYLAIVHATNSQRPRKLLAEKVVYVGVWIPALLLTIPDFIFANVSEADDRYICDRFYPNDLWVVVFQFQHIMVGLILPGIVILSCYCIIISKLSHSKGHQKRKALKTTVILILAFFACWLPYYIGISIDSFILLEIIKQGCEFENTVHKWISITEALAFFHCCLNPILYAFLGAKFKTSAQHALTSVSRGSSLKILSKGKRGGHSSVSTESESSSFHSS
CXCR4 degradation [1],staining for CXCR4 phosphorylated on Ser324 and Ser325 [2],"EC50 ([3]; 16-18 h, read-out: EC50 of increase in annexin V) [nM]",CXCR4 ubiquitination [4],CXCR4 ubiquitination ([4]; listed as CXCL12),Substance,cleavage of PARP [3],increase in annexin V ([3]; 16-18 h)
approximately 60%,strong staining,1.75 ± 0.6,prompted ubiquitin,promoted ubiquitination of CXCR4,"CXCL12WT: wild type CXCL12 (stromal cell-derived factor-1/SDF-1), SEQ ID NO:1",significantly greater than CXCL122,–
~15%,weak staining similar to vehicle,–,failed to promote CXCR4 ubiquitination,–,CXCL122: constitutively dimeric variant of CXCL12 containing L36C/A65C mutations,enhanced the cleavage of PARP,small but significant increase
